Measured values taken from US20090042785A1 (Pieris, published 2009).

Legend:
[1] = target: T1, human CTLA-4-Fc (Chimerigen) (human, UniProt P16410 36-161; P01857 99-330 = IgG part, limits assumed); test: ELISA towards hCTLA-4-Fc
T1 construct: extracellular domain;domain: Fc portion; Bought protein; also called hCTLA-4-Fc; huCTLA-4-Ig
Target sequence in this assay (P16410 other isoform, or with tags, fused parts or gaps mutant limits assumed): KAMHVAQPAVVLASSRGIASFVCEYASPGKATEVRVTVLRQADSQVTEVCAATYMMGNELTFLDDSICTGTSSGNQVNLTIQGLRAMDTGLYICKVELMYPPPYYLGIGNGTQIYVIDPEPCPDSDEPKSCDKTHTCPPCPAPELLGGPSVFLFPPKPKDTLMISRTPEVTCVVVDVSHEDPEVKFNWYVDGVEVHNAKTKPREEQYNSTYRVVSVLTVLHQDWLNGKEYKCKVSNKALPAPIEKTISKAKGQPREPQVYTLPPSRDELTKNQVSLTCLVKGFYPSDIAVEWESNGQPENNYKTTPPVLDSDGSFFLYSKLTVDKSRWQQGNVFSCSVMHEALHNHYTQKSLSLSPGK

[2] = target: T1, human CTLA-4-Fc (Chimerigen); test: SPR-Affinity towards hCTLA-4-Fc
Target sequence in this assay (P16410 other isoform, or with tags, fused parts or gaps mutant limits assumed): as above

[3] = target: T1, human CTLA-4-Fc (Chimerigen); test: competition FACS: 2.5 nM human CTLA-4 Fc pre-incubated with the antagonist, then staining of Raji cells; % inhibition of CTLA-4 Fc binding; blocked ligands B7.1 and B7.2
[4] = target: T1, human CTLA-4-Fc (Chimerigen); test: SPR-Affinity of the PEGylated monomer towards hCTLA-4-Fc
Target sequence in this assay (P16410 other isoform, or with tags, fused parts or gaps mutant limits assumed): as above

[5] = target: T1, human CTLA-4-Fc (Chimerigen); test: Affinity-ELISA of the PEGylated monomer towards hCTLA-4-Fc
Target sequence in this assay (P16410 other isoform, or with tags, fused parts or gaps mutant limits assumed): as above

[6] = target: T2, human CTLA-4 on the cell surface (transfected CHO and A431 cells; CD152-expressing cells of human tonsil) (human, UniProt P16410 36-223); test: indirect immunoperoxidase staining of cryosections; column Negative Control Antibody [Isotype-matched hNGALwt_58]
T2 construct: whole, on cells; also called CHO-hCTLA-4; CHO::hCTLA-4
T2 sequence (looked up): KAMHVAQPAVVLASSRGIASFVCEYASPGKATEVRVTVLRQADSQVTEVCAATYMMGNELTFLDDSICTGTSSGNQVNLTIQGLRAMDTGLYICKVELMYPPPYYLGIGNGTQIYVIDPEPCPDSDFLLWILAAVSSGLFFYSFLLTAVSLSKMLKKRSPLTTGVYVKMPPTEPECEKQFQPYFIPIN

[7] = target: T1, human CTLA-4-Fc (Chimerigen); test: SPR, Fc fusion captured via anti-human IgG Fc
Target sequence in this assay (P16410 other isoform, or with tags, fused parts or gaps mutant limits assumed): as the sequence (P16410 other isoform, or with tags, fused parts or gaps mutant limits assumed) above

[8] = target: T3, mCTLA-4-Fc (R&D Systems) (mouse, UniProt P09793 36-162); test: SPR, Fc fusion captured via anti-human IgG Fc
T3 sequence (P09793 whole entry, the tested form may be a part): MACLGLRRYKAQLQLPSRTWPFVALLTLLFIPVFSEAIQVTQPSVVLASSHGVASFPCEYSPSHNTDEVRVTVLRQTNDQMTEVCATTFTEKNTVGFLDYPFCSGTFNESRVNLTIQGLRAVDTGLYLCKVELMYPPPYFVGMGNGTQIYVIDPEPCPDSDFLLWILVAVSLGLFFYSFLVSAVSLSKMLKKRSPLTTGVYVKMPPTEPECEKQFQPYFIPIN

[9] = target: T1, human CTLA-4-Fc (Chimerigen); test: competition FACS: HuCTLA4-Ig 10 ug/ml pre-incubated with the antagonist, then staining of P815 cells transfected with human B7.2; blocked ligand B7.2
[10] = target: T1, human CTLA-4-Fc (Chimerigen); test: SPR as in Example 9
Target sequence in this assay (P16410 other isoform, or with tags, fused parts or gaps mutant limits assumed): as the sequence (P16410 other isoform, or with tags, fused parts or gaps mutant limits assumed) above

[11] = target: T3, mCTLA-4-Fc (R&D Systems); test: SPR as in Example 9
[12] = target: T1, human CTLA-4-Fc (Chimerigen); test: SPR; KD listed beside Tm
[13] = target: T3, mCTLA-4-Fc (R&D Systems); test: SPR; KD listed beside Tm
[14] = target: T1, human CTLA-4-Fc (Chimerigen); test: SPR-Affinity of the monomer towards hCTLA-4-Fc
[15] = target: T1, human CTLA-4-Fc (Chimerigen); test: FACS competition: inhibition of 2.5 nM hCTLA-4 Fc binding to Raji cells (B7.1, B7.2)
[16] = target: T4, mouse CTLA-4 Fc (Chimerigen) (mouse, UniProt P09793 36-161); test: FACS competition: inhibition of 2.5 nM mCTLA-4 Fc binding to Raji cells (B7.1, B7.2)
T4 construct: also called muCTLA-4-Ig; muCTLA-4-Fc; not shown: Fc part not described; detected with anti-mouse IgG-phycoerythrin

B1: S140.4-O10 site-directed PEGylated at Cys 87 with 20k PEG (designed binder)
chain: QDSTSDLIPAPPLSKVPLQQNFQDNQFHGKWYVVGLAGNRILRDDQHPMNMYATIYELKEDKSYNVTSVISSHKKCEYTIATFVPGCQPGEFTLGNIKSYGDKTSYLVRVVSTDYNQYAVVFFKLAEDNAEFFAITIYGRTKELASELKENFIRFSKSLGLPENHIVFPVPIDQCIDGSAWSHPQFEK
modifications: chain 1 pos 87: Cys carrying linear 20 kDa PEG-maleimide, written C
notes: also called O10_PEG(20k); S140.4-O10-PEG (20k)
With B1 the ELISA affinities [1] was 3.6 nM, the Kd [2] was 11 nM and the “IC50 (read off the curve)” value [3] was about 4 nM.

B2: S140.4-O10 site-directed PEGylated at Cys 87 with 30k PEG (designed binder)
chain: QDSTSDLIPAPPLSKVPLQQNFQDNQFHGKWYVVGLAGNRILRDDQHPMNMYATIYELKEDKSYNVTSVISSHKKCEYTIATFVPGCQPGEFTLGNIKSYGDKTSYLVRVVSTDYNQYAVVFFKLAEDNAEFFAITIYGRTKELASELKENFIRFSKSLGLPENHIVFPVPIDQCIDGSAWSHPQFEK
modifications: chain 1 pos 87: Cys carrying linear 30 kDa PEG-maleimide, written C
notes: also called O10_PEG(30k); S140.4-O10-PEG(30k)
Work on B2 yielded an ELISA affinities [1] of 3 nM.

B3: S140.4-O10 site-directed PEGylated at Cys 87 with 12k PEG (designed binder)
chain: QDSTSDLIPAPPLSKVPLQQNFQDNQFHGKWYVVGLAGNRILRDDQHPMNMYATIYELKEDKSYNVTSVISSHKKCEYTIATFVPGCQPGEFTLGNIKSYGDKTSYLVRVVSTDYNQYAVVFFKLAEDNAEFFAITIYGRTKELASELKENFIRFSKSLGLPENHIVFPVPIDQCIDGSAWSHPQFEK
modifications: chain 1 pos 87: Cys carrying linear 12k PEG-maleimide on its thiol, written C
notes: also called O10_PEG(12k); O10_S87C PEGylated monomer
With B3 the ELISA affinities [1] was 3.2 nM, the Kd [2] was 20 nM and the Kd [4] was 26 nM. The “ELISA-Affinity PEGylated Monomer” value [5] was 52 nM.

B4: control lipocalin hNGAL wt58 (other)
chain: QDSTSDLIPAPPLSKVPLQQNFQDNQFHGKWYVVGLAGNAILREDKDPQKMYATIYELKEDKSYNVTSVLFRKKKCDYWIRTFVPGSQPGEFTLGNIKSYPGLTSYLVRVVSTNYNQHAMVFFKKVSQNREYFKITIYGRTKELASELKENFIRFSKSLGLPENHIVFPVPIDQCIDG
notes: also called hNGAL-58; hNGAL58
B4: no binding (tested: 40 µg/mL) [6].

B5: S140.4-O10-CH4 (fusion with the CH4 domain of the human IgE-Fc portion) (designed binder)
chain: QDSTSDLIPAPPLSKVPLQQNFQDNQFHGKWYVVGLAGNRILRDDQHPMNMYATIYELKEDKSYNVTSVISSHKKCEYTIATFVPGSQPGEFTLGNIKSYGDKTSYLVRVVSTDYNQYAVVFFKLAEDNAEFFAITIYGRTKELASELKENFIRFSKSLGLPENHIVFPVPIDQCIDGSTTKTSGPRAAPEVYAFATPEWPGSRDKRTLACLIQNFMPEDISVQWLHNEVQLPDARHSTTQPRKTKGSGFFVFSRLEVTRAEWEQKDEFICRAVHEAASPSQTVQRAVSVNPESSRSGGCSAWSHPQFEK
modifications: The molecule is a homodimer formed through the CH4 domain (the patent calls it the CH4-dimer). One copy of the chain is given.
notes: Fused for dimerization; CH4 domain between the mutein and the C-terminal Strep tag; also called CH4-dimer
B5 was tested, and the Kd [2] was 0.8 nM.

B6: hNGAL mutein S94.7-Q13 (designed binder)
chain: QDSTSDLIPAPPLSKVPLQQNFQDNQFHGKWYVVGLAGNRILRDDQHPMNMYATIYELKEDKSYNVTSVIFPHKKCEYTIATFVPGSQPGEFTLGNIKSYGDKTSYLVRVVSTNYNQHATVFFKLAEDNAEFFAITIYGRTKELASELKENFIRFSKSLGLPENHIVFPVPIDQCIDGSAWSHPQF
notes: also called CTLA-4-Q13
B6 showed a Kd [7] of 11.8 nM, a koff [7] of 7.1e-05 s⁻¹ and a kon [7] of 6000 M⁻¹ s⁻¹. It also gave a Kd [8] of 39.5 nM, a koff [8] of 0.00017 s⁻¹ and a kon [8] of 4300 M⁻¹ s⁻¹. For the same binder, the “IC50 (read off the curve)” value [9] was about 5 µg/mL.

B7: hNGAL mutein S140.4-O10 (designed binder)
chain: QDSTSDLIPAPPLSKVPLQQNFQDNQFHGKWYVVGLAGNRILRDDQHPMNMYATIYELKEDKSYNVTSVISSHKKCEYTIATFVPGSQPGEFTLGNIKSYGDKTSYLVRVVSTDYNQYAVVFFKLAEDNAEFFAITIYGRTKELASELKENFIRFSKSLGLPENHIVFPVPIDQCIDG
notes: also called Onc I-002
B7 showed a Kd [10] of 8.3 nM, a koff [10] of 0.000221 s⁻¹ and a kon [10] of 15300 M⁻¹ s⁻¹. The Kd [11] was 40.8 nM, the koff [11] was 0.00049 s⁻¹ and the kon [11] was 11900 M⁻¹ s⁻¹. It also gave a Kd [12] of 8.3 nM, a Kd [13] of 40.8 nM and an ELISA affinities [1] of 3.8 nM. For the same binder, the Kd [2] was 3.7 nM and the “IC50 (read off the curve)” value [3] was about 2 nM.

B8: hNGAL mutein S140.4-O10 without T7 tag (designed binder)
chain: QDSTSDLIPAPPLSKVPLQQNFQDNQFHGKWYVVGLAGNRILRDDQHPMNMYATIYELKEDKSYNVTSVISSHKKCEYTIATFVPGSQPGEFTLGNIKSYGDKTSYLVRVVSTDYNQYAVVFFKLAEDNAEFFAITIYGRTKELASELKENFIRFSKSLGLPENHIVFPVPIDQCIDG
notes: also called S140.4-O10 (-T7 tag); S140.4-O10(-T7)
With B8 the Kd [10] was 3.9 nM, the koff [10] was 0.000108 s⁻¹ and the kon [10] was 27700 M⁻¹ s⁻¹. For the same binder, the Kd [11] was 15.3 nM, the koff [11] was 0.000416 s⁻¹ and the kon [11] was 27200 M⁻¹ s⁻¹. The Kd [14] was 3 nM, the IC50 [15] was 2.5 nM and the IC50 [16] was 15.5 nM.

B9: hNGAL mutein S140.3-P07 (designed binder)
chain: QDSTSDLIPAPPLSKVPLQQNFQDNQFHGKWYVVGLAGNRILRDDQHPMNMYATIYELKEDKSYNVTSVIFPHKKCEYTIATFVPGSQPGEFTLGNIKSYGDKTSYLVRVVSTDYNQYAVVFFKLAEDDAEFFAITIYGRTKELASELKENFIRFSKSLGLPENHIVFPVPIDQCIDG
notes: tagged entry not tied to the name; not shown: N-terminal T7 detection tag from vector phNGAL37; C-terminal Strep-tag II from vector phNGAL37
B9 showed a Kd [10] of 29 nM, a koff [10] of 0.000319 s⁻¹ and a kon [10] of 11000 M⁻¹ s⁻¹. It also gave a Kd [11] of 98 nM, a koff [11] of 0.000666 s⁻¹ and a kon [11] of 6800 M⁻¹ s⁻¹. For the same binder, the Kd [12] was 29 nM and the Kd [13] was 98 nM.

B10: hNGAL mutein S140.4-B16 (designed binder)
chain: QDSTSDLIPAPPLSKVPLQQNFQDNQFHGKWYVVGLAGNRILRDDQHPMNMYATIYELKEDKSYNVTSVIFPHKKCEYTIATFVPGSQPGEFTLSDIKSYGDKTSYLVRVVSTDYNQYAVVFFKLAEDNAEFFAITIYGRTKELASELKENFIRFSKSLGLPENHIVFPVPIDQCIDG
notes: as for B9
B10 gave a Kd [10] of 68 nM, a koff [10] of 0.000418 s⁻¹ and a kon [10] of 6160 M⁻¹ s⁻¹. For the same binder, the Kd [11] was 112 nM, the koff [11] was 0.00056 s⁻¹ and the kon [11] was 5000 M⁻¹ s⁻¹. The Kd [12] was 68 nM and the Kd [13] was 112 nM.

B11: S140.4-O10-ABD (fusion with the albumin binding domain of streptococcal protein G) (designed binder)
chain: QDSTSDLIPAPPLSKVPLQQNFQDNQFHGKWYVVGLAGNRILRDDQHPMNMYATIYELKEDKSYNVTSVISSHKKCEYTIATFVPGSQPGEFTLGNIKSYGDKTSYLVRVVSTDYNQYAVVFFKLAEDNAEFFAITIYGRTKELASELKENFIRFSKSLGLPENHIVFPVPIDQCIDGSGGAVDANSLAEAKVLANRELDKYGVSDYYKNLINNAKTVEGVKALIDEILAALPSAWSHPQFEK
notes: Original linker of protein G between mutein and ABD; also called Onc I-004
For B11, the ELISA affinities [1] was 3.3 nM, the Kd [2] was 8.9 nM and the “IC50 (read off the curve)” value [3] was about 4 nM.
